Measured values reported in the Human Domainome abundance scans (Beltran et al. 2025).
± gives the uncertainty stated by the source.

B1: Proto-oncogene vav, residues 782 to 842; numbered along this chain, P15498 (parent)
chain: KYFGTAKARYDFCARDRSELSLKEGDIIKILNKKGQQGWWRGEIYGRVGWFPANYVEEDYS
B2: Retinoic acid receptor RXR-alpha, residues 132 to 208; numbered along this chain, P19793 (parent)
chain: KHICAICGDRSSGKHYGVYSCEGCKGFFKRTVRKDLTYTCRDNKDCLIDKRQRNRCQYCRYQKCLAMGMKREAVQEE

Variants of: B1
Test: abundance fitness (aPCA) (normalised: wild type 0, dead -1); higher = more abundant; growth selection in yeast, the domain comes from the species named
Details: Homo sapiens

Variant	abundance fitness
S61L	-0.095 ± 0.12
S61A	-0.073 ± 0.18
S61F	-0.28 ± 0.16
S61C	0.071 ± 0.18
S61E	-0.235 ± 0.17
S61V	-0.216 ± 0.15
S61K	-0.196 ± 0.25
S61G	-0.194 ± 0.17
S61D	-0.208 ± 0.4
S61H	0.019 ± 0.3
S61P	0.232 ± 0.15
S61I	-0.2 ± 0.35
S61W	-0.084 ± 0.17
S61R	-0.011 ± 0.15
Y60Q	-0.097 ± 0.12
Y60W	-0.169 ± 0.12
Y60V	0.134 ± 0.098
Y60S	0.016 ± 0.071
Y60R	-0.005 ± 0.073
Y60P	-0.183 ± 0.11

Variants of: B2
Test: as above
Details: Homo sapiens

Variant	abundance fitness
I3R	-0.218 ± 0.031
I3K	-0.144 ± 0.048
I3V	-0.3 ± 0.039
I3W	-0.404 ± 0.071
I3Q	-0.211 ± 0.045
I3Y	-0.058 ± 0.038
I3D	-0.059 ± 0.035
I3N	-0.001 ± 0.033
I3A	-0.229 ± 0.033
I3C	0.022 ± 0.037
I3E	-0.428 ± 0.066
I3G	-0.28 ± 0.043
I3T	-0.008 ± 0.031
I3F	-0.06 ± 0.04
I3H	0.017 ± 0.031
I3L	0.009 ± 0.029
I3S	-0.127 ± 0.029
Y16T	-0.04 ± 0.026
Y16L	-0.035 ± 0.024
Y16R	-0.055 ± 0.024
Y16H	-0.031 ± 0.035
Y16P	-0.082 ± 0.03
Y16Q	0.063 ± 0.03
Y16G	0.015 ± 0.025
Y16M	-0.001 ± 0.032

Variant	abundance fitness
Y16W	-0.015 ± 0.032
Y16N	-0.089 ± 0.031
Y16V	0.004 ± 0.025
Y16E	0.078 ± 0.03
Y16C	-0.013 ± 0.035
Y16K	-0.092 ± 0.031
Y16A	0.011 ± 0.027
Y16S	0.014 ± 0.024
Y16F	0.06 ± 0.032
Y16D	0.046 ± 0.035
I6C	0.008 ± 0.048
I6K	-0.881 ± 0.098
I6D	-0.729 ± 0.097
I6Y	-0.881 ± 0.085
I6G	-0.386 ± 0.068
I6N	-0.439 ± 0.048
I6T	-0.064 ± 0.033
I6M	-0.038 ± 0.039
I6L	-0.124 ± 0.03
I6Q	-0.909 ± 0.11
I6A	-0.145 ± 0.038
I6S	-0.438 ± 0.036
I6R	-0.687 ± 0.065
I6H	-0.731 ± 0.072
K14G	-0.004 ± 0.025

Variant	abundance fitness
K14P	-0.004 ± 0.043
K14Y	-0.218 ± 0.1
K14R	-0.115 ± 0.03
K14I	-0.112 ± 0.088
K14T	-0.039 ± 0.045
K14F	0.017 ± 0.071
K14W	-0.013 ± 0.034
K14C	-0.027 ± 0.05
K14V	-0.057 ± 0.028
K14N	-0.028 ± 0.071
K14M	0.001 ± 0.042
K14S	-0.04 ± 0.037
K14E	-0.034 ± 0.035
K14D	0.018 ± 0.045
K14A	-0.027 ± 0.031
K14Q	0 ± 0.05
K14L	-0.094 ± 0.034
K14H	-0.414 ± 0.1
A5D	0.016 ± 0.044
A5S	0.02 ± 0.036
A5E	0.04 ± 0.036
A5W	0.03 ± 0.042
A5R	0.044 ± 0.032
A5F	0.171 ± 0.065
A5N	-0.022 ± 0.055

Variant	abundance fitness
A5I	0.055 ± 0.084
A5L	0.037 ± 0.037
A5V	-0.054 ± 0.033
A5P	-0.074 ± 0.052
A5M	0.036 ± 0.048
A5T	0.045 ± 0.049
A5H	0.044 ± 0.063
A5Q	0.036 ± 0.046
A5G	-0.045 ± 0.027
H15E	-0.065 ± 0.031
H15K	-0.138 ± 0.034
H15S	-0.196 ± 0.026
H15V	-0.098 ± 0.026
H15R	-0.039 ± 0.023
H15Y	-0.05 ± 0.037
H15F	-0.064 ± 0.037
H15L	-0.138 ± 0.027
H15C	-0.081 ± 0.041
H15A	-0.13 ± 0.028
H15P	-0.034 ± 0.028
H15M	-0.234 ± 0.031
H15T	-0.24 ± 0.029
H15Q	-0.007 ± 0.034
H15W	-0.078 ± 0.032
H15I	-0.181 ± 0.038

Variant	abundance fitness
H15G	-0.056 ± 0.024
H15D	-0.08 ± 0.036
R10D	-0.047 ± 0.034
R10G	-0.072 ± 0.026
R10H	-0.051 ± 0.03
R10E	-0.059 ± 0.034
R10M	-0.099 ± 0.034
R10K	-0.025 ± 0.033
R10T	-0.024 ± 0.026
R10A	-0.139 ± 0.028
R10F	-0.064 ± 0.031
R10Y	-0.028 ± 0.029
R10C	-0.053 ± 0.035
R10L	-0.131 ± 0.024
R10I	-0.021 ± 0.031
R10S	-0.046 ± 0.025
R10N	-0.024 ± 0.031
R10W	-0.044 ± 0.035
R10V	-0.199 ± 0.028
G17L	-0.107 ± 0.035
G17K	-0.085 ± 0.046
G17R	-0.095 ± 0.027
G17N	0.056 ± 0.068
G17H	-0.053 ± 0.089
G17D	0.031 ± 0.063

Variant	abundance fitness
G17I	-0.275 ± 0.087
G17Q	-0.089 ± 0.041
G17E	0.005 ± 0.037
G17P	-0.277 ± 0.052
G17S	-0.029 ± 0.033
G17Y	-0.1 ± 0.13
G17C	-0.002 ± 0.059
G17A	-0.106 ± 0.03
G17M	0.025 ± 0.044
G17W	-0.163 ± 0.035
G17F	-0.088 ± 0.1
C7Y	-0.917 ± 0.08
C7H	-0.942 ± 0.1
C7K	-1.29 ± 0.22
C7F	-1.19 ± 0.14
C7S	-0.944 ± 0.067
C7W	-1.22 ± 0.23
C7D	-0.357 ± 0.053
C7G	-0.921 ± 0.1
C7N	-0.728 ± 0.07
C7P	-0.961 ± 0.093
C7M	-0.867 ± 0.14
C7A	-0.919 ± 0.11
C7Q	-0.988 ± 0.15
C7I	-1.24 ± 0.16

Variant	abundance fitness
C7L	-1.23 ± 0.12
C7E	-0.769 ± 0.13
C7T	-0.981 ± 0.083
C7V	-1.11 ± 0.14
C4N	-0.936 ± 0.12
C4H	-0.512 ± 0.073
C4Y	-0.875 ± 0.099
C4E	-0.866 ± 0.11
C4M	-1.08 ± 0.16
C4Q	-0.614 ± 0.088
C4V	-1.03 ± 0.086
C4T	-0.757 ± 0.063
C4W	-1.3 ± 0.19
C4K	-1.23 ± 0.2
C4A	-0.895 ± 0.063
C4F	-0.955 ± 0.11
C4R	-1.02 ± 0.066
C4G	-0.914 ± 0.059
C4D	-0.807 ± 0.11
C4P	-0.99 ± 0.1
C4S	-1.03 ± 0.076
C4L	-0.999 ± 0.076
D9P	-0.662 ± 0.054
D9W	-0.141 ± 0.054
D9S	-0.137 ± 0.028

Variant	abundance fitness
D9K	0.03 ± 0.044
D9M	-0.354 ± 0.051
D9G	-0.166 ± 0.039
D9A	-0.091 ± 0.037
D9F	-0.321 ± 0.036
D9C	-0.898 ± 0.083
D9L	-0.708 ± 0.045
D9N	-0.05 ± 0.033
D9T	-0.089 ± 0.031
D9H	-0.214 ± 0.034
D9I	-0.455 ± 0.04
D9E	0.098 ± 0.055
D9R	-0.243 ± 0.032
D9V	-0.424 ± 0.044
D9Q	0.033 ± 0.045
Y19A	-0.036 ± 0.033
Y19E	-0.047 ± 0.038
Y19C	-0.116 ± 0.041
Y19D	-0.041 ± 0.038
H2E	0.055 ± 0.051
H2L	-0.041 ± 0.037
H2M	0.078 ± 0.054
H2P	-0.453 ± 0.063
H2S	0.011 ± 0.043
H2C	-0.267 ± 0.071

Variant	abundance fitness
H2N	-0.001 ± 0.062
H2K	0.096 ± 0.047
H2Y	-0.008 ± 0.067
H2I	0.189 ± 0.085
H2D	0.072 ± 0.061
H2T	-0.026 ± 0.052
H2G	-0.005 ± 0.031
H2Q	-0.031 ± 0.043
H2V	-0.142 ± 0.042
H2R	-0.101 ± 0.032
H2W	-0.109 ± 0.044
G13M	-0.042 ± 0.052
G13V	-0.067 ± 0.039
G13R	-0.024 ± 0.031
G13T	-0.005 ± 0.049
G13L	-0.082 ± 0.041
G13S	-0.121 ± 0.046
G13F	-0.114 ± 0.092
G13A	0.02 ± 0.035
G13Y	0.017 ± 0.079
G13W	-0.659 ± 0.073
G13N	0.048 ± 0.084
G13H	0.025 ± 0.081
G13E	0.059 ± 0.044
G13P	-0.118 ± 0.074

Variant	abundance fitness
G13C	-0.707 ± 0.16
G13I	-0.367 ± 0.11
G13K	0.084 ± 0.056
G13D	0.019 ± 0.048
G13Q	-0.009 ± 0.054
G8P	-0.227 ± 0.036
G8W	-0.1 ± 0.06
G8M	-0.07 ± 0.041
G8T	0.016 ± 0.035
G8F	0.006 ± 0.036
G8Q	0.043 ± 0.045
G8D	-0.04 ± 0.039
G8E	0.005 ± 0.069
G8N	-0.017 ± 0.035
G8C	-0.027 ± 0.045
G8L	-0.179 ± 0.03
G8R	-0.125 ± 0.033
G8K	-0.053 ± 0.05
G8H	-0.062 ± 0.037
G8A	-0.027 ± 0.037
G8Y	-0.044 ± 0.043
G8V	-0.228 ± 0.034
G8S	-0.041 ± 0.03
V18F	-0.144 ± 0.044
V18H	-0.356 ± 0.044

Variant	abundance fitness
V18E	0.01 ± 0.04
V18C	-0.078 ± 0.039
V18M	-0.147 ± 0.083
V18L	-0.141 ± 0.029
V18A	-0.133 ± 0.035
V18G	0.013 ± 0.035
V18S	-0.328 ± 0.034
V18T	-0.357 ± 0.099
V18D	-0.205 ± 0.047
V18N	-0.574 ± 0.12
V18I	-0.142 ± 0.061
V18P	-0.18 ± 0.038
V18R	-0.227 ± 0.037
V18Y	-0.262 ± 0.038
K1N	-0.024 ± 0.045
K1E	-0.117 ± 0.058
K1T	-0.435 ± 0.051
K1A	-0.531 ± 0.094
K1L	-0.333 ± 0.05
K1M	-0.067 ± 0.05
K1F	-0.217 ± 0.065
K1D	-0.02 ± 0.05
K1R	-0.286 ± 0.055
K1Y	-0.119 ± 0.045
K1H	-0.222 ± 0.06

Variant	abundance fitness
K1S	-0.299 ± 0.042
K1V	-0.206 ± 0.042
K1C	-0.185 ± 0.053
K1W	-0.341 ± 0.076
S12P	0.062 ± 0.061
S12N	0.091 ± 0.084
S12Q	0.104 ± 0.064
S12C	-0.657 ± 0.1
S12L	0.019 ± 0.038
S12A	0.044 ± 0.041
S12F	-0.112 ± 0.082
S12G	0.072 ± 0.032
S12W	-0.072 ± 0.047
S12D	0.001 ± 0.053
S12E	0.101 ± 0.049
S12R	0.123 ± 0.032
S12V	0.018 ± 0.036
S12K	0.137 ± 0.056
S12T	0.114 ± 0.047
S12H	-0.131 ± 0.082
S12I	-0.196 ± 0.12
S11I	-0.113 ± 0.031
S11R	-0.162 ± 0.025
S11H	-0.019 ± 0.035
S11N	-0.084 ± 0.029

Variant	abundance fitness
S11D	-0.014 ± 0.036
S11T	-0.089 ± 0.028
S11F	-0.087 ± 0.031
S11P	0.072 ± 0.03
S11W	-0.066 ± 0.031
S11E	-0.072 ± 0.035
S11L	-0.142 ± 0.024
S11M	-0.111 ± 0.032
S11A	-0.054 ± 0.029
S11C	-0.015 ± 0.032
S11Q	-0.101 ± 0.032
S11G	-0.116 ± 0.026
S11V	-0.179 ± 0.027
S11Y	-0.096 ± 0.027
